In US20230303690A1 (published 2023):

Biological target: T1, LAG3 Protein, Human, Recombinant (His Tag) (Sino Biological Catalog No. 16498-H08H) (human, UniProt P18627 23-450)
T1 construct: Bought protein; also called hLAG3-His; LAG3-His; not shown: His tag
T1 sequence (looked up): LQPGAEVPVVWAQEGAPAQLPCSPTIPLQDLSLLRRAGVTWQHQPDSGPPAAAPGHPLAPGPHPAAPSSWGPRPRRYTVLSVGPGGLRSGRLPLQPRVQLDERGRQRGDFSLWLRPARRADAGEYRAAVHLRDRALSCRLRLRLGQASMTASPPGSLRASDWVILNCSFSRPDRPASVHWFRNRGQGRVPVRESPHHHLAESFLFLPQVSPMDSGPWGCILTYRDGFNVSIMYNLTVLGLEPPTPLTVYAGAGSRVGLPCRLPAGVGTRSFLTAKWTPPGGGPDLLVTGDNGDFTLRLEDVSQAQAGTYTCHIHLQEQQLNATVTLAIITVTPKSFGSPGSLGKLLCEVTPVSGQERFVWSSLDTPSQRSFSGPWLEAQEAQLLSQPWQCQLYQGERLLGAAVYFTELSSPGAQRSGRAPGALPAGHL
Assay: ELISA, coated hLAG3-His
Experimental: Plates were coated with 100 µL per well of Coating Solution, and then covered, and incubated overnight (12-18 hours) at 2-8° C. The wells were aspirated and washed 1 time with >200 µL of Wash buffer per well, inverted and tapped on absorbent paper to remove excess liquid. The plates were blocked with 200 µL per well with Blocking buffer (1×PBS+4% milk) for 1 hour at room temperature, aspirated, inverted, and tapped on absorbent paper to remove excess liquid. Standards and sample dilutions were prepared in Blocking buffer. 100 µL of standards (in duplicate) and samples were pipetted into designated wells. After incubation for 1 hour at room temperature with gentle continual shaking (~500 rpm), the wells were aspirate and washed 3 times with >200 µL of Wash buffer per well, inverted and tapped on absorbent paper to remove excess liquid.
The primary antibody solution was diluted with Blocking buffer. See Table 14 for recommended primary antibody dilution. 100 µL of the primary antibody solution was added into each well and incubated for 2 hours at room temperature with gentle continual shaking (~500 rpm). The wells were aspirated and washed 3 times with >200 µL of Wash buffer per well, inverted and tapped on absorbent paper to remove excess liquid. The working solution of secondary antibody was made with Blocking buffer by diluting the secondary antibody by 2,500 times. 100 µL of secondary antibody working solution was added into each well and incubated for 30 minutes at room temperature. The wells were aspirated and washed 5 times with >200 µL of Wash buffer per well, inverted and tapped on absorbent paper to remove excess liquid. 100 µL of TMB substrate solution (Biopanda, TMB-S-004) was added to each well and incubated for 30 minutes at room temperature. 100 µL of Stop solution (Solarbio, C1058) was added to each well. Absorbance at 450 nm was measured within 30 minutes of adding Stop solution. Results were calculated using a log-log or 4-parameter curve fit.

B1: sdAb No. 27 (VHH)
VHH: QVQLVESGGGLVQPGGSLRLSCAASGFTLDYYAIGWFRQAPGKEREGVSCIRSSDGSTYYADSVKGRFTISSDNTKNTVYLQMNSLKPEDTAVYYCATDRYSDCRGPYENWGQGTQVTVSS
notes: Fc of the tested form not described; also called sdAb 27; not shown: Fc part implied by anti-human Fc capture and anti-human IgG Fc detection
- EC50: 4.7 nM
- OD450 at 0.061 nM: 0.037
- OD450 at 0.1829 nM: 0.042
- OD450 at 0.5487 nM: 0.059
- OD450 at 1.6461 nM: 0.257
- OD450 at 4.9383 nM: 1.04
- OD450 at 14.815 nM: 1.57
- OD450 at 44.445 nM: 1.77
- OD450 at 133.335 nM: 1.95

B2: sdAb No. 25 (VHH)
VHH: QLQLVESGGGLVQAGGSLRLSCAASGSIESFSFMGWYRQAPGKQRELVAGFTGAASLSFSTYTDAVKGRFTISRDNAKNTVYLQMNSLKPEDTAVYFCNVDPWSQSWPGRYWGQGTQVTVSS
notes: Fc of the tested form not described; also called sdAb 25; sdAb #25; not shown: Fc part implied by anti-human Fc capture and anti-human IgG Fc detection
- EC50: 3.45 nM
- OD450 at 0.061 nM: 0.037
- OD450 at 0.1829 nM: 0.042
- OD450 at 0.5487 nM: 0.06
- OD450 at 1.6461 nM: 0.233
- OD450 at 4.9383 nM: 0.643
- OD450 at 14.815 nM: 0.85
- OD450 at 44.445 nM: 0.882
- OD450 at 133.335 nM: 1.02
